Minimal concentration that maximally inhibits TGF-β1 release and signaling (reporter assay) data for 1 substance are collected here from patent US20240042020A1.

This experiment deals with human GARP-TGF-β1 complex (human) (UniProt Q14392).

On to livmoniplimab (antibody), for which the minimal concentration that maximally inhibits TGF-β1 release and signaling (reporter assay) was found to be 0.8 µg/mL.
